Reference: patent US20240238451A1

Key:
Assay in all cases: cell-based or functional assay
EGFP [GFP: P42212] = molecular target: EGFP [GFP: P42212]
ALFA-tagged GAL4-VP16 = molecular target: ALFA-tagged GAL4-VP16
mCherry = molecular target: mCherry

Substance: NIR-FbmCherry-NbGFP fusion (bispecific antibody)
- reduction in EGFP fluorescence in the absence of mCherry (EGFP [GFP: P42212]): 60%

Substance: NIR-FbGFP-GAL4 fusion
- decrease of Gluc bioluminescent signal with mTagBFP2 instead of EGFP (GAL4/UAS reporter, HeLa) (EGFP [GFP: P42212]): 25 fold
- reduction of mCherry reporter level in the absence of EGFP (pUAS-mCherry reporter) (EGFP [GFP: P42212]): 3 fold

Substance: NIR-FbGFP-NbALFA (bispecific antibody)
- reduction of Gluc signal without EGFP against EGFP-expressing cells (ALFA-GAL4, pUAS-Gluc, HeLa) (ALFA-tagged GAL4-VP16): 75%

Substance: Gluc-biNIR-FbGFP fusion
- reduction of secreted Gluc signal with mTagBFP2 instead of EGFP (HeLa) (EGFP [GFP: P42212]): 78%

Substance: bispecific NIR-FbGFP-NIR-FbmCherry fusion (bispecific antibody)
- drop of NIR fluorescence when only mCherry (no EGFP) is co-expressed (EGFP [GFP: P42212]): 10 fold
- drop of NIR fluorescence when only EGFP (no mCherry) is co-expressed (mCherry): 10 fold

Substance: biNIR-FbGFP-GAL4
- decrease of Gluc signal with mTagBFP2 instead of EGFP (GAL4/UAS reporter, HeLa) (EGFP [GFP: P42212]): 50 fold

Substance: biNIR-FbGFP-NbALFA (bispecific antibody)
- reduction of Gluc signal in the absence of EGFP (ALFA-GAL4, pUAS-Gluc, HeLa) (ALFA-tagged GAL4-VP16): 85%
